Results published in the supplement of paper PMC9170038.

System: MS2 coat protein
Assay: apparent KD of MS2 coat protein; designed switch direction (-1 OFF switch, 1 ON switch): -1; higher = weaker reporter binding
In short: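 SNAP-549-labelled MS2 coat protein was titrated, doubling from 0.7 or 1.5 nM to 3 µM, over designed RNA switches transcribed on Illumina chips by stalled E. coli RNA polymerase. Runs were done without input, with 200 uM small-molecule ligand, or with an oligonucleotide input. Apparent KD is the per-design median over clusters of curve-fitted normalised fluorescence.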

[1] = input ligand: microRNA oligo, concentration not stated
[2] = Eterna round: R95, input ligand: microRNA oligo, concentration not stated
[3] = Eterna round: R95, input ligand: FMN 200 uM
[4] = Eterna round: R95, input ligand: none

## CUCCGGCGUGUAGGAUAUGGUUCCGUUUCGGUUCCAGAAGGACAUGAGGAUCACCCAUGUGCCUGUCGUCGGUCGUCACCGGGC [salish99_ExNG1_r04_217] (Eterna round: R96, puzzle: Exclusion NG 1)
Input ligand: FMN 200 uM
  apparent KD of MS2 coat protein: 0.0178 µM
[1]
  apparent KD of MS2 coat protein: 0.0103 µM
Input ligand: none
  apparent KD of MS2 coat protein: 0.0154 µM

## CUCCUACAUGAGGAUCACCCAUGUCAGGAUAUCUCAGUGGUACCUAAAUUUACCACCCAGAGAAGGGACGUGCA [Diradireer] (puzzle: Exclusion 1)
[2]
  apparent KD of MS2 coat protein: 0.0119 µM

## CUCCUGCGAGGAUAUACAUAGUGACGUCUGUUUAAUCUUAAACAUGAGGAUCACCCAUGUAGAAGGUGCGUCAC [EX2 #82] (Eterna round: R97, puzzle: Exclusion 2)
Input ligand: FMN 200 uM
  apparent KD of MS2 coat protein: 0.0131 µM
Input ligand: none
  apparent KD of MS2 coat protein: 0.0132 µM

## CUCGGACAUGAGGAUCACCCAUGUGAGGAUAUGAUGCGAUCGUCGAAAGACGAUAGCAUCAGAAGGUACAAAUG [Fiskers Ex 1 - 22] (Eterna round: R96, puzzle: Exclusion 1)
Input ligand: FMN 200 uM
  apparent KD of MS2 coat protein: 0.0602 µM
[1]
  apparent KD of MS2 coat protein: 0.0362 µM
Input ligand: none
  apparent KD of MS2 coat protein: 0.0503 µM

## CUCGGACAUGAGGAUCACCCAUGUGAGGAUAUGAUGCGAUCGUCGAAAGACGAUAGCAUCAGAAGGUACAAAUG [Fiskers Ex 1 - 22] (puzzle: Exclusion 1)
[2]
  apparent KD of MS2 coat protein: 0.0556 µM

## CUCGGGAGUCAGGAUAUCGGCACUUAUCAAUCACGAGAAGGGACGACAUGAGGAUCACCCAUGUGGGAAAAGAA [Ersoar] (puzzle: Exclusion 6)
[3]
  apparent KD of MS2 coat protein: 0.252 µM
[2]
  apparent KD of MS2 coat protein: 0.0894 µM
[4]
  apparent KD of MS2 coat protein: 0.0847 µM

## CUCGUGCAGCUUUGCUGUACGAGUACAUGAGGAUCACCCAUGUAGGAUAUGGUACGCUUUGCGUGCUAGAAGGACGUGUGUAUG [JL EXNG3 1.39] (Eterna round: R96, puzzle: Exclusion NG 3)
Input ligand: FMN 200 uM
  apparent KD of MS2 coat protein: 0.117 µM
[1]
  apparent KD of MS2 coat protein: 0.029 µM
Input ligand: none
  apparent KD of MS2 coat protein: 0.0318 µM

## CUCUAGAAAGGAUAUACAUGAGGAUCACCCAUGUCCACGCCAUAACCGAGUGCCAUCUGUAGAAGGUUCAGAGU [Eternabot (L1) Solution 96] (Eterna round: R97, puzzle: Exclusion 3)
Input ligand: FMN 200 uM
  apparent KD of MS2 coat protein: 0.0525 µM
Input ligand: none
  apparent KD of MS2 coat protein: 0.0292 µM

## CUCUUGGCAGGAUAUGCUCUCUUAGACAUGAGGAUCACCCAUGUGCUCAUUCCUUCUUUUGCAGAAGGGCCUUAAC [JR_E5_Sub047] (puzzle: Exclusion 5)
[2]
  apparent KD of MS2 coat protein: 0.0639 µM

## CUCUUGUCAGGAUAUCAACGCCGCCCACACGGGCGGCGAAAUGAGAAGGGACAUGAGGAUCACCCAUGUUAAAA [Orsoesarqu] (puzzle: Exclusion 4)
[3]
  apparent KD of MS2 coat protein: 0.0203 µM
[2]
  apparent KD of MS2 coat protein: 0.133 µM
[4]
  apparent KD of MS2 coat protein: 0.212 µM

## CUGAGCAGACGGAGAUCCAACAUGAGGAUCACCCAUGUCUCAUAAGCUUUUUGCUUGUCUUAUCCUCCUCUGUUCUC [Mariedxeor] (puzzle: Sensor v3, turn-off variant 1)
[3]
  apparent KD of MS2 coat protein: 0.0177 µM
[2]
  apparent KD of MS2 coat protein: 0.315 µM
[4]
  apparent KD of MS2 coat protein: 0.0144 µM

## CUGAGCUGAGGAUAUACAUGAGGAUCACCCAUGUAAAGCAGCUUGCGUACAGGCAGAUGUAGAAGGCAGUUCGG [Mod of JL 16 - Jieux - Exclusion 3] (Eterna round: R97, puzzle: Exclusion 3)
Input ligand: FMN 200 uM
  apparent KD of MS2 coat protein: 0.0374 µM
Input ligand: none
  apparent KD of MS2 coat protein: 0.0181 µM

## CUGAGGUAGCGGUCCUAUGACAUGAGGAUCACCCAUGUACCUUGCUUUGAGCUAAUUGCUCGUCUUAUGAUUCUCGG [Mat - Sensor v3 - turn-off var 1 - JL Mod - D45] (puzzle: Sensor v3, turn-off variant 1)
[3]
  apparent KD of MS2 coat protein: 0.5 µM
[2]
  apparent KD of MS2 coat protein: 0.457 µM
[4]
  apparent KD of MS2 coat protein: 0.479 µM

## CUGAGUGGAGGAUAUACAUGAGGAUCACCCAUGUAAAGUAGCUUGCGUACAGGCAGAUGUAGAAGGUCAUUCGG [Mod of JL 12 - Jieux - Exclusion 3] (Eterna round: R97, puzzle: Exclusion 3)
Input ligand: FMN 200 uM
  apparent KD of MS2 coat protein: 0.0282 µM
Input ligand: none
  apparent KD of MS2 coat protein: 0.0103 µM

## CUGCUCCGUGUAGGAUAUCCGCGCAACCAACGCGGAGAAGGACAUGAGGAUCACCCAUGUAUGUUAUUAUCACGUGAAGCGUCC [Design 29] (Eterna round: R96, puzzle: Exclusion NG 1)
Input ligand: FMN 200 uM
  apparent KD of MS2 coat protein: 0.0325 µM
[1]
  apparent KD of MS2 coat protein: 0.0155 µM
Input ligand: none
  apparent KD of MS2 coat protein: 0.0281 µM

## CUGCUCCGUGUAGGAUAUGCAUACCACCACUAUGCAGAAGGACAUGAGGAUCACCCAUGUAUGUUAUUAUCACGUGUAGCGUCC [Design 18] (Eterna round: R96, puzzle: Exclusion NG 1)
Input ligand: FMN 200 uM
  apparent KD of MS2 coat protein: 0.023 µM
[1]
  apparent KD of MS2 coat protein: 0.0149 µM
Input ligand: none
  apparent KD of MS2 coat protein: 0.0206 µM

## CUGCUCCGUGUAGGAUAUGCGCGCACCCAACGCGCAGAAGGACAUGAGGAUCACCCAUGUAUGUUAUUAUCACGUGAGGCGCAG [Design 34] (Eterna round: R96, puzzle: Exclusion NG 1)
Input ligand: FMN 200 uM
  apparent KD of MS2 coat protein: 0.0288 µM
[1]
  apparent KD of MS2 coat protein: 0.0144 µM
Input ligand: none
  apparent KD of MS2 coat protein: 0.0177 µM

## CUGCUCCGUGUAGGAUAUGCGCGCACCCACCGCGCAGAAGGACAUGAGGAUCACCCAUGUAUGUUAUUAUCACGUGAGGCGCGG [Design 36] (Eterna round: R96, puzzle: Exclusion NG 1)
Input ligand: FMN 200 uM
  apparent KD of MS2 coat protein: 0.0319 µM
[1]
  apparent KD of MS2 coat protein: 0.0177 µM
Input ligand: none
  apparent KD of MS2 coat protein: 0.0331 µM

## CUGGACCCGGUAGGAUAUAUUGUGGGCGGGCGUGGAACGACAUGAGGAUCACCCAUGUGAUUGAGGUAGAAGGGCCGAGAGGUC [Excl-NG2-LRO19] (Eterna round: R96, puzzle: Exclusion NG 2)
Input ligand: FMN 200 uM
  apparent KD of MS2 coat protein: 0.0432 µM
[1]
  apparent KD of MS2 coat protein: 0.0312 µM
Input ligand: none
  apparent KD of MS2 coat protein: 0.0429 µM

## CUGGUCCGAGGAUAUAUUAAGUGAUACAUGAGGAUCACCCAUGUAAUUUGAUGGAUAUAAAUAGAAGGCGGACUAG [Mat - Exclusion 5 - JL mod - D43] (puzzle: Exclusion 5)
[3]
  apparent KD of MS2 coat protein: 0.0598 µM
[2]
  apparent KD of MS2 coat protein: 0.0371 µM
[4]
  apparent KD of MS2 coat protein: 0.0438 µM

## CUGGUCCGAGGAUAUAUUAUGUGAAACAUGAGGAUCACCCAUGUAAUAUGAUGGAUGAAAAUAGAAGGCGGACUAG [Mat - Exclusion 5 - JL mod - D30] (puzzle: Exclusion 5)
[3]
  apparent KD of MS2 coat protein: 0.0362 µM
[2]
  apparent KD of MS2 coat protein: 0.0435 µM
[4]
  apparent KD of MS2 coat protein: 0.061 µM

## CUGGUUGUCGAGGAUAUGCACCAGCUCACUGACGCAGAAGGCGACACAUGAGGAUCACCCAUGUCGGUUCGCGU [salish99_ex6_r004_436] (Eterna round: R97, puzzle: Exclusion 6)
Input ligand: FMN 200 uM
  apparent KD of MS2 coat protein: 0.0307 µM
Input ligand: none
  apparent KD of MS2 coat protein: 0.0282 µM

## CUGUUUUUCGCAGGAUAUGCUUCUCCUUUAUUAGCAGAAGGGCGUUAAACAUGAGGAUCACCCAUGUAUGGUAAUGACAUUUUC [JR_ExcNG1_Sub061] (Eterna round: R96, puzzle: Exclusion NG 1)
Input ligand: FMN 200 uM
  apparent KD of MS2 coat protein: 0.0983 µM
[1]
  apparent KD of MS2 coat protein: 0.0182 µM
Input ligand: none
  apparent KD of MS2 coat protein: 0.0243 µM

## CUUAAGUUAGGAUAUGCGCUACGGAAUCGUGGUUAUAGAUAGCAGAAGGAACUUGAGGAUCACCCAAGUAAAUA [Reerored] (Eterna round: R97, puzzle: Exclusion 4)
Input ligand: FMN 200 uM
  apparent KD of MS2 coat protein: 0.116 µM
Input ligand: none
  apparent KD of MS2 coat protein: 0.137 µM

## CUUAUGUGAGGAUAUGGUGUUGGCCACAGGAAAAAGAUCCUCCAGAAGGCACAUGAGGAUCACCCAUGUAGUGA [Jolly's Folly 30 - Jieux - Exclusion 4] (Eterna round: R96, puzzle: Exclusion 4)
Input ligand: FMN 200 uM
  apparent KD of MS2 coat protein: 0.22 µM
[1]
  apparent KD of MS2 coat protein: 0.0545 µM
Input ligand: none
  apparent KD of MS2 coat protein: 0.0572 µM
